Test results as given in patent US20230398151A1.
Where two headings read alike, the source gives them in different places.

Tests used:
TGFβ1 (R&D systems) [1] = target: TGFβ1 (R&D systems) (UniProt P01137); assay: cell-based or functional assay
TGFβ1 (R&D systems) [2] = target: TGFβ1 (R&D systems) (UniProt P01137); assay: cell-based or functional assay; remark: listed apart in the source

TGFβ1 (R&D systems), sequence (P01137 279-390 limits assumed): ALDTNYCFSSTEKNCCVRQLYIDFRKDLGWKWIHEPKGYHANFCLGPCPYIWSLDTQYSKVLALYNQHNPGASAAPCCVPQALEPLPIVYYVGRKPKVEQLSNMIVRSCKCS

IC50 of TGFβ1 activity in HEK-Blue TGFβ cells (TGFβ1 (R&D systems) [1]): 0.461 nM | IC50 of TGFβ1 activity in HEK-Blue TGFβ cells (TGFβ1 (R&D systems) [2]): 0.559 nM
Substance: TGFR-Fc (R&D Systems) (from UniProt P37173 24-159) (Fc fusion)
